Results on ten molecules are retold here after patent US20230295284A1 (MIT, published 2023).

The labels stand for the following.
B1: LMJ1.2C (VHH)
VHH: QVQLVETGGGLVQAGGSLRLSCAASGSTFSHSAGGWYRQAPEKQRELVAGIRSDGNINYADSVKDRFTISRDNASNTMYLQMNNLKPEDTAVYVCNIRGSYGNTYYSRWGQGTQVTVSS
modifications: sortase-tagged with biotin in the Western blots ; Purified by a his-tag for BLI and sortase-tagged with biotin in the Western blots. The tag letters are not stated for the free nanobody, so they are left out.
notes: First round of yeast display; Expressed in E. coli, his-tag purified
B2: LMJ2.4C (VHH)
VHH: QVQLVEAGGGLVQAGGSLRLSCAASGSTFSHSAGGWYRQAPEKQRELVAGIRSDGNINYADSVKDRFTISRDNASNTMYLQMNNLKPEDTAVYVCNIRGSYGNTYYSRWGQGIQVTVSS
modifications: sortase-tagged with biotin in the Western blots ; Purified by a his-tag for BLI and sortase-tagged with biotin in the Western blots. The tag letters are not stated for the free nanobody, so they are left out.
notes: Second round of yeast display; Expressed in E. coli, his-tag purified
B3: LMJ2.5J (VHH)
VHH: QVQLVETRGGLVQAGGSLRLSCAVSGSTFSHSAGGWYRQAPEKQRELVAGIGSAGNINYADSVKDRFTISRDNASNTMYLQMNNLKPEDTAVYVCNIRGSYGNTYYSRWGQGTQVTVSS
modifications: sortase-tagged with biotin in the Western blots ; Western blots used the nanobody sortase-tagged with biotin at a terminus. The BLI material was his-tag purified. Tag letters are not stated for the stand-alone nanobody and are left out.
notes: as for B2
B4: LMJ2.5I (VHH)
VHH: RVQLVETGGGLVQAGGSLRLSCAVSGSTFSHSAGGWYRQAPEKQRELVAGIRSDGNINYADSVKDRFTISRDNASNTMYLQMNNLKPEDTAVYVCNIRGSYGNTYYSRWGQGAQVTVSS
modifications: sortase-tagged with biotin in the Western blots ; Purified by a his-tag for BLI and sortase-tagged with biotin in the Western blots. The tag letters are not stated for the free nanobody, so they are left out.
notes: as for B2
B5: LMJ1.3J (VHH)
VHH: QVQLVGTGGGLVQAGGSLRLSCAASGSTFSHSAGGWYRQAPEKQRELVAGISSAGNINYADSVKDRFTISRDNASNTMYLQMNNLKPEDTAVYVCNIRGSYGNTYYSRWGQGTQVTVSS
modifications: sortase-tagged with biotin in the Western blots ; Purified by a his-tag for BLI and sortase-tagged with biotin in the Western blots. The tag letters are not stated for the free nanobody, so they are left out.
notes: as for B1
B6: LMJ2.5H (VHH)
VHH: QVQLVETGGGLVQAGGSLRLSCAVSGSTFSHSAGGWYRQAPEKQRELVAGIRSDGNINYADSVKDRFTISRDNASNTMYLQMNNLKPEDTAVYVCNIRGSYGNTYYSRWGQGTQVTVSS
modifications: sortase-tagged with biotin in the Western blots ; Western blots used the nanobody sortase-tagged with biotin at a terminus. The BLI material was his-tag purified. Tag letters are not stated for the stand-alone nanobody and are left out.
notes: as for B2
B7: LMJ2.5G (VHH)
VHH: QVQLVETEGGLVQAGGSLRLSCAASGSTFSHSAGGWYRQAPEKQRELVAGIRSDGNINYADSVKDRFTISRDNASNTMYLQMNNLKPEDTAVYVCNIRGSYGNTYYSRWGQGTQVTVSS
modifications: sortase-tagged with biotin in the Western blots ; Western blots used the nanobody sortase-tagged with biotin at a terminus. The BLI material was his-tag purified. Tag letters are not stated for the stand-alone nanobody and are left out.
notes: as for B2
B8: LMJ1.2G (VHH)
VHH: QVQLVETGGGLVQAGGSLRLSCAASGSTFSHSAGGWYRQAPEKQRELVAGIGSDGNINYADSVKDRFTISRDNASNTMYLQMNNLKPEDTAVYVCNIRGSYGNTYYSRWGQGTQVTVSS
modifications: sortase-tagged with biotin in the Western blots ; Purified by a his-tag for BLI and sortase-tagged with biotin in the Western blots. The tag letters are not stated for the free nanobody, so they are left out.
notes: as for B1
B9: LMJ2.5C (VHH)
VHH: QVQLVETGGGLVQAGGSLRLSCAASGSTFSHSAGGWYRQAPEKQRELVAGVRSDGNINYADSVKDRFTISRDNASNTMYLQMNNLKPEDTAVYVCNIRGSYGNTYYSRWGQGIQVTVSS
modifications: sortase-tagged with biotin in the Western blots ; Purified by a his-tag for BLI and sortase-tagged with biotin in the Western blots. The tag letters are not stated for the free nanobody, so they are left out.
notes: as for B2
B10: LMJ2.6A (VHH)
VHH: RVQLVETGGGLVQAGGSLRLSCAVSGRTFSHSAGGWYRQAPEKQRELVAGIRSDGNINYADSVKDRFTISRDNASNTMYLQMNNLKPGDTAVYVCNIRGSYGNTYYSRWGQGTQVTVSS
modifications: sortase-tagged with biotin in the Western blots ; Purified by a his-tag for BLI and sortase-tagged with biotin in the Western blots. The tag letters are not stated for the free nanobody, so they are left out.
notes: as for B2

The target in this experiment is human plasma fibronectin (human, UniProt P02751-8 32-2296, limits assumed). The experiment is described as follows: Western blot, biotin-tagged nanobody. A general note: A western blot detects proteins with antibodies after separation by electrophoresis.
Chain of human plasma fibronectin (P02751 other isoform, or with tags, fused parts or gaps limits assumed): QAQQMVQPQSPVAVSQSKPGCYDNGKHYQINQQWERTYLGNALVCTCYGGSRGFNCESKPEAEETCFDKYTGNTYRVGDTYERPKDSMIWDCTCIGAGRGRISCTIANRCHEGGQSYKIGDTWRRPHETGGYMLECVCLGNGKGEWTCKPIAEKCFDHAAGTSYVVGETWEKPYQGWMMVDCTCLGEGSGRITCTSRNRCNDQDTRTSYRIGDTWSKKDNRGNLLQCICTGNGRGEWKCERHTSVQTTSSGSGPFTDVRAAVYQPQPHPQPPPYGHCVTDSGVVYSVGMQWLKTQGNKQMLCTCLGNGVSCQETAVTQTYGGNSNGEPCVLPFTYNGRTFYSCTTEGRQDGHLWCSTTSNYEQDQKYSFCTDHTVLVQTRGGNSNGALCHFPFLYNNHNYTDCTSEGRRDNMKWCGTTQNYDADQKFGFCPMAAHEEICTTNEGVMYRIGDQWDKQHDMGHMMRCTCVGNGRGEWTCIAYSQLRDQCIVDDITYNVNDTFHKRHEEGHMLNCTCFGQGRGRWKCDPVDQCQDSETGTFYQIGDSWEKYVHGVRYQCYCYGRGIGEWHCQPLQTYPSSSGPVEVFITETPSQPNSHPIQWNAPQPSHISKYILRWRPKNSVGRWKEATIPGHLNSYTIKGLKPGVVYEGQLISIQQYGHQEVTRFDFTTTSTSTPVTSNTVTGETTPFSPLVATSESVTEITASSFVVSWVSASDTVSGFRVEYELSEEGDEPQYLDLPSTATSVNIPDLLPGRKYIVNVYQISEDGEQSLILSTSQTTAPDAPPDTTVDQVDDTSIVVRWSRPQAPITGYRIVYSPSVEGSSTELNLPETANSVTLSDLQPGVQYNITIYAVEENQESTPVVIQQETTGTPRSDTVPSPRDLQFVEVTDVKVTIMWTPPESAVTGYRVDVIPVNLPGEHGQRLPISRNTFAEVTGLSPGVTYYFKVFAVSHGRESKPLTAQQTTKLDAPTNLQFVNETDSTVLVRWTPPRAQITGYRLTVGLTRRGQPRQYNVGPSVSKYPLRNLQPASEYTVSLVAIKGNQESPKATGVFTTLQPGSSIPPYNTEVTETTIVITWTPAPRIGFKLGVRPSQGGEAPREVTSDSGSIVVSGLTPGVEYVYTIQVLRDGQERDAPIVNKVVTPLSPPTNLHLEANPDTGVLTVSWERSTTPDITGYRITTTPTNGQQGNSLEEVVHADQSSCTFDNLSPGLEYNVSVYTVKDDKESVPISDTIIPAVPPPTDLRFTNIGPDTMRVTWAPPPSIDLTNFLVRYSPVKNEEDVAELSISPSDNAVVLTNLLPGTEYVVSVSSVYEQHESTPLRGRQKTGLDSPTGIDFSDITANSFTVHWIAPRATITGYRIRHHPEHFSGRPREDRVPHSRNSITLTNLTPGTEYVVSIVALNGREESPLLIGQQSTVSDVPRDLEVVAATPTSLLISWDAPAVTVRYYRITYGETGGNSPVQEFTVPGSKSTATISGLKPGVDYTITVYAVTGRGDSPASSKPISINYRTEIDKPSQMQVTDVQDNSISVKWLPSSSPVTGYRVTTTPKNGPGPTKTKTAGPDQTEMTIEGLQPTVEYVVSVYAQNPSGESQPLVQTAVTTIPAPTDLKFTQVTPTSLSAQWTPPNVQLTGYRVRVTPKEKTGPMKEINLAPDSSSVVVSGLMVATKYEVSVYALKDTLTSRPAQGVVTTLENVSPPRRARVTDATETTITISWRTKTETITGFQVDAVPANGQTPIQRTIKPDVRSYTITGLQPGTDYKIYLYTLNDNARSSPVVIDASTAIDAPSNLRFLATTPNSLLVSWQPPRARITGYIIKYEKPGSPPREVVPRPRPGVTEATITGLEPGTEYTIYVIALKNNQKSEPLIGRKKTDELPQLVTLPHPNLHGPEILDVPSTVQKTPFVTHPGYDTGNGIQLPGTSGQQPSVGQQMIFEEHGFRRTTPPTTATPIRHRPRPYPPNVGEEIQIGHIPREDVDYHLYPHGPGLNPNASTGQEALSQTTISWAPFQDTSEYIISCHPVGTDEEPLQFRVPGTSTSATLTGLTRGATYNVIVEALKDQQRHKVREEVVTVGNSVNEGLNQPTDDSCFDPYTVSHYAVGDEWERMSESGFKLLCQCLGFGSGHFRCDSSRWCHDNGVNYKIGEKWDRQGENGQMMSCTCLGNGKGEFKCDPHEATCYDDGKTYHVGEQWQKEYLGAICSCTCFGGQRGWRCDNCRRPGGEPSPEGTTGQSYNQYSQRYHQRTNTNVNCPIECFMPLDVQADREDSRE
B1: the binding result is on record as “no binding”.
For B2, the binding result was “no binding”.
For B3 the value was “no binding”; for B4, “no binding”.
For B5, the binding result is given as “no binding”.
On to B6, for which the binding result is listed as “no binding”.
Then B7, with “no binding”; and B8, with “no binding”; and B9, with “no binding”.
B10: the binding result is reported as “no binding”.
